Measurements reported in patent publication CN116063469A (UNIV ZHONGSHAN, dated 2023).

Target: T1, 寨卡病毒包膜蛋白的结构域III (ZIKV-EDⅢ抗原) (Zika virus (strain NCBI KU740184.2))
T1 construct: domain: 结构域III (EDIII); also called ZIKV-EDIII; ZIKV EDIII
Experiment: SPR (OpenSPR, COOH chip), ZIKV-EDIII immobilised, nanobody as analyte, 1:1 model

B1: 纳米抗体Nb-E5 (VHH)
VHH: SDSEVNQEAKPEVKPEVKPETHINLKVSDGSSEIFFKIKKTTPLRRLMEAFAKRQGKEMDSLRFLYDGIRIQADQTPEDLDMEDNDIIEAHREQIGGMAVQLVESGGGLVQPGGSLRLSCKVSGRPFTTYALGWFRQAPGKEREFLTVGAWRGQIFTAESVRGRFTISLDTAKNTFDLQMNSLNIEDTAVYYCAAGSRSSNTPQADPGSFDYWGQGTQVTVSSGAR
notes: no removal of the tag is told, and detection used anti-SMT3 / anti-His antibodies; From a naive alpaca phage library; not shown: 6×His tag at the N-terminus of SUMO (pET-28a-SUMO vector)
Kd: 8.22 nM
